According to article doi:10.1101/2024.05.05.592566:

Legend:
[1] = target: N-terminal truncated AbiV lacking its first 23 amino acids (AbiV_Δ23) (L. cremoris MG1363); assay: crystal structure
[2] = target: surface lysine methylated full-length AbiV (product of abiV1) from L. cremoris MG1363 (L. cremoris MG1363); assay: crystal structure
[3] = target: T1, AbiV (AbiV1, HEPN RNase toxin) (Lactococcus cremoris MG1363, UniProt A2RJ64 1-201); assay: EMSA
T1 sequence: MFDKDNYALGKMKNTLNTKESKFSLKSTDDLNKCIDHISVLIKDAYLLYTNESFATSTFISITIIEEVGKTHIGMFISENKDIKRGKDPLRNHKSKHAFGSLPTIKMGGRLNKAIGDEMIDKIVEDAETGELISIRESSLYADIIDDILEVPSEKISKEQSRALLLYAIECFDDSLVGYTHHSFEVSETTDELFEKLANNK

N-terminal truncated AbiV lacking its first 23 amino acids (AbiV_Δ23) (domain or fragment)
stoichiometry N [1]: 2

surface lysine methylated full-length AbiV (product of abiV1) from L. cremoris MG1363 (enzyme)
stoichiometry N [2]: 2

B1: abiV2 motif85-102 (18-mer short RNA) (ssRNA)
RNA: AAGUAGCUGCAACUACUA
binding result [3]: binds

B2: abiV2 motif50-66 (17-mer short RNA) (ssRNA)
RNA: AAUUGAUACUGUCAAUA
binding result [3]: no binding
